Data from the RNAGym collection of RNA variant scans (doi:10.1101/gr.219683.116).

B1: mRNA-splicing (parent)
chain: AGUUGCUGCUGGGAGCUCCAGCACAGUGAAAUGGACAGAAGGGCAGAGCAA

Variants of: B1
Assay: exon inclusion enrichment index; higher = more inclusion; WT1 exon 5 minigene, HEK293

Row | Variant | exon inclusion enrichment index
1 | G5A C6G U7G C9A G43C | 0.00197
2 | G5A C6G U7G C9A G42C G43U | 0.00749
3 | G5A C6G U7G C9A G42C G43C | 0.0141
4 | G5A C6G U7G C9A G42C G43A | 0.0348
5 | G5A C6G U7G C9A A39G A40U | 0.00199
6 | G5A C6G U7G C9A A39G A40G | 0.0132
7 | G5A C6G U7G C9A A39G A40C | 0.00397
8 | G5A C6G U7G C9A A45G G46A | 0.0107
9 | G5A C6G U7G C9A A45G G46U | 0.00135
10 | G5A C6G U7G C9A A45G G46C | 0.00144
11 | G5A C6G U7G C9A C36U A37C | 0.000996
12 | G5A C6G U7G C9A C36U A37U | 0.00084
13 | G5A C6G U7G C9A C36U A37G | 0.00557
14 | G5A C6G U7G C9A G28U | 0.000687
15 | G5A C6G U7G C9A G28A | 0.000725
16 | G5A C6G U7G C9A G28C | 0.00255
17 | G5A C6G U7G C9A G46U A47C | 0.0165
18 | G5A C6G U7G C9A G46U A47U | 0.00177
19 | G5A C6G U7G C9A G46U A47G | 0.00156
20 | G5A C6G U7G C9A U10A | 0.00068
21 | G5A C6G U7G C9A U10G | 0.00589

Row | Variant | exon inclusion enrichment index
22 | G5A C6G U7G C9A U10C | 0.00449
23 | G5A C6G U7G C9A G48U | 0.00708
24 | G5A C6G U7G C9A G48C | 0.00243
25 | G5A C6G U7G C9A G48A | 0.000556
26 | G5A C6G U7G C9A G46A A47C | 0.00647
27 | G5A C6G U7G C9A G46A A47U | 0.00359
28 | G5A C6G U7G C9A G46A A47G | 0.00174
29 | G5A C6G U7G C9A G12U G13A | 0.000517
30 | G5A C6G U7G C9A G12U G13U | 0.000533
31 | G5A C6G U7G C9A G12U G13C | 0.00117
32 | G5A C6G U7G C9A U17A | 0.00695
33 | G5A C6G U7G C9A U17C | 0.00172
34 | G5A C6G U7G C9A G11U G12A | 0.00148
35 | G5A C6G U7G C9A G11U G12U | 0.000733
36 | G5A C6G U7G C9A G11U G12C | 0.00339
37 | G5A C6G U7G C9A C18A C19G | 0.00131
38 | G5A C6G U7G C9A C18A C19U | 0.00126
39 | G5A C6G U7G C9A C18A C19A | 0.0013
40 | G5A C6G U7G C9A A37G G38U | 0.000981
41 | G5A C6G U7G C9A A37G G38C | 0.00203
42 | G5A C6G U7G C9A A37G G38A | 0.0012

Row | Variant | exon inclusion enrichment index
43 | G5A C6G U7G C9A G34A | 0.00215
44 | G5A C6G U7G C9A G34C | 0.000973
45 | G5A C6G U7G C9A G34U | 0.000859
46 | G5A C6G U7G C9A A39G | 0.00219
47 | G5A C6G U7G C9A A39U | 0.000789
48 | G5A C6G U7G C9A A39C | 0.00101
49 | G5A C6G U7G C9A G33A G34U | 0.000917
50 | G5A C6G U7G C9A G33A G34A | 0.000844
51 | G5A C6G U7G C9A G33A G34C | 0.000823
52 | G5A C6G U7G C9A C18G | 0.00165
53 | G5A C6G U7G C9A C18A | 0.000986
54 | G5A C6G U7G C9A C18U | 0.000744
55 | G5A C6G U7G C9A C19G | 0.00133
56 | G5A C6G U7G C9A C19U | 0.00126
57 | G5A C6G U7G C9A C19A | 0.00105
58 | G5A C6G U7G C9A G13A | 0.0025
59 | G5A C6G U7G C9A G13U | 0.000555
60 | G5A C6G U7G C9A G13C | 0.00103
61 | G5A C6G U7G C9A C24G | 0.00883
62 | G5A C6G U7G C9A C24U | 0.00094
63 | G5A C6G U7G C9A C24A | 0.00195

Row | Variant | exon inclusion enrichment index
64 | G5A C6G U7G C9A G15U C16A | 0.00611
65 | G5A C6G U7G C9A G15U C16U | 0.000743
66 | G5A C6G U7G C9A G15U C16G | 0.00106
67 | G5A C6G U7G C9A U17C C18G | 0.00304
68 | G5A C6G U7G C9A U17C C18U | 0.00126
69 | G5A C6G U7G C9A U17C C18A | 0.00107
70 | G5A C6G U7G C9A G21C C22U | 0.00338
71 | G5A C6G U7G C9A G21C C22G | 0.00387
72 | G5A C6G U7G C9A G21C C22A | 0.00656
73 | G5A C6G U7G C9A A39C A40G | 0.0112
74 | G5A C6G U7G C9A A39C A40U | 0.00672
75 | G5A C6G U7G C9A A39C A40C | 0.0091
76 | G5A C6G U7G C9A G38A A39U | 0.00074
77 | G5A C6G U7G C9A G38A A39C | 0.0024
78 | G5A C6G U7G C9A G38A A39G | 0.000899
79 | G5A C6G U7G C9A G11C G12C | 0.00959
80 | G5A C6G U7G C9A G11C G12A | 0.000679
81 | G5A C6G U7G C9A G11C G12U | 0.00113
82 | G5A C6G U7G C9A G33U G34C | 0.00131
83 | G5A C6G U7G C9A G33U G34A | 0.000839
84 | G5A C6G U7G C9A G33U G34U | 0.000939
